Consider two proteins from article PMC10415144, “Structural insights into CodY activation and DNA recognition” (Nucleic Acids Research, 2021).

Substitutions are numbered along the chain they refer to.

Data set [1] concerns the molecule itself. The experiment in a line: mass photometry; Refeyn OneMP; 100 nM CodY, ligand-free, 20 mM Tris-HCl pH 8, 200 mM NaCl.
Data set [2] concerns the molecule itself. The data set can be described thus: mass photometry + SEC-MALS; data not shown; EfCodY quadruple mutant in solution.

B1: Enterococcus faecalis CodY (EfCodY), full length (natural protein)
chain: GAMATLLEKTRQVNELLQKNNLFDVQAELPYNKMAMILGDILESNAYIISSSGDLLGYTEKLDVNNARIKNMFKEKKFPQGYTEAVDMLKVTEANIPIDSDLTAFPFESRELYPFGLTTIVPLYGAGKRLGTIILARVEKSFNEDDLVLAEYSATVVGMQILYHQSRTIEAEVRSATAVQMAINTLSYSELKAVHAIFEALDGEEGRLTASSIADEIGITRSVIVNALRKLESAGIIESRSLGMKGTYLKVLNQQFIKELEK
notes: also called CodY from Ef
As to B1, the “stoichiometry N” value in data set [1] is 2.

B2: EfCodY quadruple mutant (Tyr186, Arg238, Leu240 and Tyr246 replaced with Ala) (natural protein)
chain: B1 chain with Y188A, R240A, L242A, Y248A
notes: also called EfCodY-mutant
As for B2, the “stoichiometry N” value in data set [2] came out at 2.

The term stoichiometry N denotes the number of molecules, sites or subunits per partner or assembly.
